Measured values published in patent US6828304B1, “Peptides for treatment of cancer” (Dabur Research Foundation, priority 2000, dated 2004).
Peptide text beside a SMILES is read from it. * marks the point of attachment. Palmitoyl = CCCCCCCCCCCCCCCC(=O)*; Myristoyl = CCCCCCCCCCCCCC(=O)*; Octanoyl = CCCCCCCC(=O)*; Butyryl = CCCC(=O)*

Assays:
[1] = system: PTC (primary colon) tumor cells; assay: MTT cytotoxicity assay, PTC cells; type: cell-based, human; settings: 48 hours
From the text: (§1) The cytotoxic effect of Lipo peptide analogs, DT-A1 (SEQ ID NO: 2), DT-B1 (SEQ ID NO: 3), DT-01 (SEQ ID NO: 4), DT-M1 (SEQ ID NO: 5) and DT-P1 (SEQ ID NO: 6) was studied by MTT assay which is based on the principle of uptake of MTT [3-[4,5-dimethylthiazol-2-yl]-2,5-diphenyl tetrazolium bromide], a tetrazolium salt by the metabolically active cells where it is metabolized by active mitochondria into a blue colored formazan product which can be read spectrophotometrically. Briefly, tumor cells PTC (primary colon) KB (Oral squamous), U87MG (Glioblastoma), HBL100 (Breast), HeP2 (Laryngeal), ECV304 (Endothelial), PA-1 (Ovary) and L132 (Lung) were incubated with the peptide analogs for 48 hours at 37° C. in a 96-well culture plate, followed by the addition of 100 μg MTT and _further incubation of 1 hour. The formazan crystals formed inside the cells were dissolved with a detergent comprising 10% Sodium dodecyl sulfate and 0.01 N HCl and optical density read on a multiscan ELISA reader. The optical density was directly proportional to the number of proliferating and metabolically active cells.

[2] = system: KB (Oral squamous) tumor cells; assay: MTT cytotoxicity assay, KB cells; type: cell-based; settings: 48 hours
From the text: as §1

[3] = system: U87MG (Glioblastoma) tumor cells; assay: MTT cytotoxicity assay, U87MG cells; type: cell-based; settings: 48 hours
From the text: as §1

[4] = system: HBL100 (Breast) tumor cells; assay: MTT cytotoxicity assay, HBL100 cells; type: cell-based; settings: 48 hours
From the text: as §1

[5] = system: HeP2 (Laryngeal) tumor cells; assay: MTT cytotoxicity assay, HeP2 cells; type: cell-based; settings: 48 hours
From the text: as §1

L132 (Lung) tumor cells = assay: MTT cytotoxicity assay, L132 cells; type: cell-based; settings: 48 hours
From the text: as §1

PA-1 (Ovary) tumor cells = assay: MTT cytotoxicity assay, PA-1 cells; type: cell-based; settings: 48 hours
From the text: as §1

[6] = system: ECV304 (Endothelial) cells; assay: MTT cytotoxicity assay, ECV304 cells; type: cell-based; settings: 48 hours
From the text: as §1

[7] = system: human colon adenocarcinoma (PTC) xenografts; assay: Antitumor activity in PTC xenografts in nude mice; type: in vivo
Procedure: The antitumor activity of DT-B1 (SEQ ID NO: 3) was studied in human colon adenocarcinoma (PTC) xenografts in nude mice. PTC tumor xenografts were grown in Balb/c a thymic mice by subcutaneous inoculation of a single cell suspension of PTC cells (15×10^6 cells/100 EL). The tumor bearing animals were divided into 2 groups of three animals each including one group comprising untreated control animals. Treatment with DT-B1 was initiated when the average tumor volumes, as measured using a vernier caliper, were between 1.3 cm^3. Solutions of DT-B1 was prepared at a concentration of 126 μg/ml and intravenously administered to the assigned group of tumor bearing animals at a dose of 12.6 μg/100 μL twice a day so that the total dose of 25.2 μg/day was administered to each animal. The treatment was continued for a period of 14 days.
The antitumor activity of the compounds was monitored by measuring tumor volumes every fourth day using the formula W*W*L*0.4 (W=smaller diameter, L=larger diameter). The percentage inhibition of tumor growth was calculated using the formula (1-tumor volume-treated/tumor volume-control)* 100.

Row | Compound | Percentage cytotoxicity ([2]; 1 nM) [%] | Percentage cytotoxicity ([2]; 10 nM) [%] | Percentage cytotoxicity ([2]; 100 nM) [%] | Percentage cytotoxicity ([2]; 1 μM) [%] | Percentage cytotoxicity ([3]; 1 nM) [%] | Percentage cytotoxicity ([3]; 10 nM) [%] | Percentage cytotoxicity ([3]; 100 nM) [%] | Percentage cytotoxicity ([3]; 1 μM) [%] | Percentage cytotoxicity ([4]; 1 nM) [%] | Percentage cytotoxicity ([4]; 10 nM) [%] | Percentage cytotoxicity ([4]; 100 nM) [%] | Percentage cytotoxicity ([5]; 1 nM) [%] | Percentage cytotoxicity ([5]; 10 nM) [%] | Percentage cytotoxicity ([5]; 100 nM) [%] | Percentage cytotoxicity ([5]; 1 μM) [%] | Percentage cytotoxicity (L132 (Lung) tumor cells; 1 nM) [%] | Percentage cytotoxicity (L132 (Lung) tumor cells; 10 nM) [%] | Percentage cytotoxicity (L132 (Lung) tumor cells; 100 nM) [%] | Percentage cytotoxicity (L132 (Lung) tumor cells; 1 μM) [%] | Percentage cytotoxicity (PA-1 (Ovary) tumor cells; 1 nM) [%] | other results
1 | CCCCCCCCCCCCCC(=O)N[C@@H](CC(C)C)C(=O)N[C@@H](CCSC)C(=O)N[C@@H](Cc1ccc(O)cc1)C(=O)N1CCC[C@H]1C(=O)N[C@H](C(=O)N[C@@H](Cc1ccc(O)cc1)C(=O)N[C@@H](CC(C)C)C(=O)N[C@@H](CCCCN)C(=O)O)[C@@H](C)O [DT-M1, Myristoyl-Leu-Met-Tyr-Pro-Thr-Tyr-Leu-Lys-OH] (Myristoyl-LMYPTYLK-OH) | 21.0 ± 26 | 23.9 ± 3.1 | 19.0 ± 3.2 | 12.9 ± 1.6 | 29.4 ± 1.2 | 44.9 ± 2.7 | 32.2 ± 2.2 | 5.0 ± 2.5 | 21.9 ± 2.4 | 31.6 ± 3.8 | 30.4 ± 2.4 | 15.8 ± 2.2 | 18.7 ± 2.2 | 22.9 ± 1.3 | 12.9 ± 1.2 | 10.6 ± 1.9 | 26.7 ± 1.1 | 16.8 ± 2.1 | 9.6 ± 2.4 | 27.5 ± 2.9 | Percentage cytotoxicity ([1]; 1 nM): 26 ± 0.5%; Percentage cytotoxicity ([1]; 10 nM): 25 ± 3.6%; Percentage cytotoxicity ([1]; 100 nM): 31 ± 4.6%; Percentage cytotoxicity ([1]; 1 μM): 30 ± 3.9%; Percentage cytotoxicity ([4]; 1 μM): 29.6 ± 2.3%; Percentage cytotoxicity (PA-1 (Ovary) tumor cells; 10 nM): 42.0 ± 2.2%; Percentage cytotoxicity (PA-1 (Ovary) tumor cells; 100 nM): 25.9 ± 3.3%; Percentage cytotoxicity (PA-1 (Ovary) tumor cells; 1 μM): 15.7 ± 1.2%; Percentage cytotoxicity ([6]; 1 nM): 21.9 ± 1.6%; Percentage cytotoxicity ([6]; 10 nM): 16.9 ± 3.1%; Percentage cytotoxicity ([6]; 100 nM): 22.9 ± 1.0%; Percentage cytotoxicity ([6]; 1 μM): 17.7 ± 1.2%
2 | Ac-LMYPTYLK-OH [DT-A1, Acetyl-Leu-Met-Tyr-Pro-Thr-Tyr-Leu-Lys-OH] | 25.9 ± 1.6 | 31.0 ± 2.1 | 26.9 ± 2.1 | 21.0 ± 2.3 | 10.4 ± 1.3 | 29.9 ± 2.2 | 26.9 ± 1.5 | 21.9 ± 1.4 | 19.9 ± 3.5 | 31.9 ± 3.5 | 30.5 ± 1.3 | 14.9 ± 2.2 | 39.9 ± 1.8 | 21.9 ± 2.7 | 19.7 ± 1.1 | 13.9 ± 2.9 | 26.4 ± 3.2 | 14.6 ± 3.1 | 12.9 ± 2.4 | 21.9 ± 1.5 | Percentage cytotoxicity ([4]; 1 μM): 28.9 ± 1.2%; Percentage cytotoxicity (PA-1 (Ovary) tumor cells; 10 nM): 24.9 ± 2.6%; Percentage cytotoxicity (PA-1 (Ovary) tumor cells; 100 nM): 18.5 ± 2.3%; Percentage cytotoxicity (PA-1 (Ovary) tumor cells; 1 μM): 6.9 ± 3.2%; Percentage cytotoxicity ([6]; 1 nM): 8.0 ± 2.5%; Percentage cytotoxicity ([6]; 10 nM): 16.5 ± 3.4%; Percentage cytotoxicity ([6]; 100 nM): 22.0 ± 2.3%; Percentage cytotoxicity ([6]; 1 μM): 10.8 ± 3.4%
3 | Palmitoyl-Leu-Met-Tyr-Pro-Thr-Tyr-Leu-Lys-OH (Palmitoyl-LMYPTYLK-OH) [DT-P1] | 21.9 ± 2.6 | 32.0 ± 2.1 | 23.0 ± 2.2 | 18.0 ± 2.6 | 9.6 ± 1.8 | 34.0 ± 2.6 | 32.9 ± 2.5 | 18.4 ± 2.4 | 25.7 ± 2.5 | 34.9 ± 3.6 | 33.3 ± 1.4 | 13.9 ± 1.2 | 24.9 ± 2.8 | 28.9 ± 1.7 | 14.9 ± 1.3 | 10.9 ± 1.9 | 29.0 ± 1.2 | 19.6 ± 1.1 | 17.8 ± 2.2 | 20.5 ± 1.9 | Percentage cytotoxicity ([1]; 1 nM): 27 ± 3.1%; Percentage cytotoxicity ([1]; 10 nM): 21 ± 1.2%; Percentage cytotoxicity ([1]; 100 nM): 33 ± 1.1%; Percentage cytotoxicity ([1]; 1 μM): 31 ± 3.1%; Percentage cytotoxicity ([4]; 1 μM): 28.9 ± 1.3%; Percentage cytotoxicity (PA-1 (Ovary) tumor cells; 10 nM): 21.9 ± 2.2%; Percentage cytotoxicity (PA-1 (Ovary) tumor cells; 100 nM): 25.6 ± 3.3%; Percentage cytotoxicity (PA-1 (Ovary) tumor cells; 1 μM): 21.7 ± 2.2%; Percentage cytotoxicity ([6]; 1 nM): 18.8 ± 2.6%; Percentage cytotoxicity ([6]; 10 nM): 19.9 ± 3.4%; Percentage cytotoxicity ([6]; 100 nM): 31.9 ± 1.3%; Percentage cytotoxicity ([6]; 1 μM): 25.9 ± 1.4%
4 | n-Butanoyl-Leu-Met-Tyr-Pro-Thr-Tyr-Leu-Lys-OH (Butyryl-LMYPTYLK-OH) [DT-B1] | 21.9 ± 0.5 | 25.9 ± 4.1 | 18.9 ± 3.2 | 14.8 ± 2.3 | 33.9 ± 0.6 | 39.7 ± 2.7 | 30.7 ± 1.7 | 20.6 ± 1.7 | 33.0 ± 1.5 | 34.8 ± 1.8 | 33.9 ± 2.8 | 8.7 ± 1.5 | 22.9 ± 1.6 | 14.9 ± 5.3 | 12.9 ± 4.4 | 13.9 ± 1.9 | 26.8 ± 1.9 | 10.7 ± 2.6 | 11.8 ± 2.3 | 43.9 ± 2.9 | Percentage cytotoxicity ([1]; 1 nM): 36 ± 1.0%; Percentage cytotoxicity ([1]; 10 nM): 44 ± 1.3%; Percentage cytotoxicity ([1]; 100 nM): 48 ± 1.7%; Percentage cytotoxicity ([1]; 1 μM): 31 ± 1.5%; Percentage cytotoxicity ([4]; 1 μM): 32.8 ± 2.2%; Percentage cytotoxicity (PA-1 (Ovary) tumor cells; 10 nM): 45.8 ± 1.2%; Percentage cytotoxicity (PA-1 (Ovary) tumor cells; 100 nM): 38.5 ± 1.6%; Percentage cytotoxicity (PA-1 (Ovary) tumor cells; 1 μM): 33.7 ± 1.6%; Percentage cytotoxicity ([6]; 1 nM): 18.7 ± 5.3%; Percentage cytotoxicity ([6]; 10 nM): 19.9 ± 4.2%; Percentage cytotoxicity ([6]; 100 nM): 31.9 ± 2.8%; Percentage cytotoxicity ([6]; 1 μM): 25.8 ± 2.3%; percentage inhibition of tumor growth as compared to controls ([7]; day 20, intravenous 12.6 μg twice a day (25.2 μg/day) for 14 days, PTC xenografts in nude mice): 95.85%; antitumor activity on PTC xenografts (in words) ([7]; intravenous 25.2 μg/day for 14 days, tumor kinetics till day 20): significant antitumor activity
5 | n-Octanoyl-Leu-Met-Tyr-Pro-Thr-Tyr-Leu-Lys-OH (Octanoyl-LMYPTYLK-OH) [DT-O1] | 21.0 ± 0.6 | 34.9 ± 3.1 | 26.9 ± 2.2 | 23.9 ± 1.3 | 37.0 ± 1.6 | 38.7 ± 1.7 | 28.6 ± 1.2 | 21.9 ± 1.5 | 30.0 ± 1.4 | 33.7 ± 2.8 | 32.8 ± 2.8 | 8.6 ± 2.5 | 22.9 ± 1.2 | 17.9 ± 2.3 | 18.8 ± 4.2 | 19.4 ± 2.9 | 25.9 ± 1.7 | 14.9 ± 2.5 | 7.9 ± 2.3 | 26.0 ± 3.9 | Percentage cytotoxicity ([1]; 1 nM): 28 ± 5.4%; Percentage cytotoxicity ([1]; 10 nM): 32 ± 0.3%; Percentage cytotoxicity ([1]; 100 nM): 33 ± 3.2%; Percentage cytotoxicity ([1]; 1 μM): 29 ± 5.5%; Percentage cytotoxicity (PA-1 (Ovary) tumor cells; 10 nM): 37.8 ± 2.2%; Percentage cytotoxicity (PA-1 (Ovary) tumor cells; 100 nM): 22.6 ± 3.6%; Percentage cytotoxicity (PA-1 (Ovary) tumor cells; 1 μM): 6.0 ± 1.4%; Percentage cytotoxicity ([6]; 1 nM): 16.9 ± 1.3%; Percentage cytotoxicity ([6]; 10 nM): 27.9 ± 3.2%; Percentage cytotoxicity ([6]; 100 nM): 24.9 ± 2.4%; Percentage cytotoxicity ([6]; 1 μM): 23.9 ± 2.2%
